Some results are limits rather than exact numbers.

This test has as its target M1-linked polyubiquitin chains (UniProt P0CG48). The test is described as follows: cell-based or functional assay.

The substance “trypsin-resistant tandem ubiquitin binding entity (TR-TUBE) (designed binder)” had a Ub-ProT assay: length of chain protected from trypsinization (ubiquitin molecules) of under 16.

The record behind these values is patent US20150132779A1.
